Assay results as given in patent publication US20240116985A1 (published 2024).
Starred links: 1 amine or outer side, 2 acyl side, 3 side chain; linkers in the order of their positions; H or OH if unused. Positions of bridges follow the written chain, without caps; N, C: chain ends. Non-standard residues stand in square brackets, D forms with d. Primed or numbered codes have the meaning given here. PyrS2 = (S)-3-amino-1-((pent-4-en-1-yloxy)carbonyl)pyrrolidine-3-carboxylic acid, C=CCCCOC(=O)N1CC[C@@](N[*:1])(C(=O)[*:2])C1; B5(19) = 2-amino-2-(pent-4-en-1-yl)hept-6-enoic acid (bis(4-pentenyl)glycine), C=CCCCC(CCCC=C)(N[*:1])C(=O)[*:2]; αAllylPro = C=CC[C@@]1(C(=O)O)CCCN1

Assays:
[1] = target: T1, B-cat-Halo (beta-catenin HaloTag NanoBRET construct expressed in HEK293 cells) (UniProt P35222 1-781, HaloTag NanoBRET 618 Ligand bound in the assay); assay: cell-based or functional assay
T1 sequence (looked up): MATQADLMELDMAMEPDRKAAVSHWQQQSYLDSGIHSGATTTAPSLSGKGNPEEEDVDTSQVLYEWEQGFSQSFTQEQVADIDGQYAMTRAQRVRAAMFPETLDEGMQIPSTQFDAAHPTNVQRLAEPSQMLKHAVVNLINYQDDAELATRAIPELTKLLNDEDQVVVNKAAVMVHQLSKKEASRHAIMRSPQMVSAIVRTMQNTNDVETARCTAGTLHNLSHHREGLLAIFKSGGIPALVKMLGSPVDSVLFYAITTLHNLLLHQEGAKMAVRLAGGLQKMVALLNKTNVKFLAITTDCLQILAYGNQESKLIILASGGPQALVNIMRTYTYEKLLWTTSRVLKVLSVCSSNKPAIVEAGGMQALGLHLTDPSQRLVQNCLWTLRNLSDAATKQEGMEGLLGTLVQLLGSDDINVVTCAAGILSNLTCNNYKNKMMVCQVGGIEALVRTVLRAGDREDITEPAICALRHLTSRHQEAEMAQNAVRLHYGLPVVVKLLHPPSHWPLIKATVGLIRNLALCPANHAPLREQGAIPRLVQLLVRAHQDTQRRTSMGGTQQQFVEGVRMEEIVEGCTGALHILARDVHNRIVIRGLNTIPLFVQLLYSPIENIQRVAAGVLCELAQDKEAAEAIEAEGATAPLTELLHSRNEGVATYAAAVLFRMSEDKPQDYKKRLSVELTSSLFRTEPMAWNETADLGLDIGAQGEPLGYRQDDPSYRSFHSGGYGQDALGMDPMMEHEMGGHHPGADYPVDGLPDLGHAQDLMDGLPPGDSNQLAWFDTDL

[2] = target: T2, full-length beta-Catenin (Uniprot ID P35222) (Homo sapiens (Human), UniProt P35222 2-781); assay: fluorescence polarization competition; full-length beta-catenin, 5FAM-TCF4(10-53) probe as competitor
T2 construct: The FP protocol names full-length beta-Catenin (Uniprot ID P35222); also called bCat; B-Catenin
T2 sequence: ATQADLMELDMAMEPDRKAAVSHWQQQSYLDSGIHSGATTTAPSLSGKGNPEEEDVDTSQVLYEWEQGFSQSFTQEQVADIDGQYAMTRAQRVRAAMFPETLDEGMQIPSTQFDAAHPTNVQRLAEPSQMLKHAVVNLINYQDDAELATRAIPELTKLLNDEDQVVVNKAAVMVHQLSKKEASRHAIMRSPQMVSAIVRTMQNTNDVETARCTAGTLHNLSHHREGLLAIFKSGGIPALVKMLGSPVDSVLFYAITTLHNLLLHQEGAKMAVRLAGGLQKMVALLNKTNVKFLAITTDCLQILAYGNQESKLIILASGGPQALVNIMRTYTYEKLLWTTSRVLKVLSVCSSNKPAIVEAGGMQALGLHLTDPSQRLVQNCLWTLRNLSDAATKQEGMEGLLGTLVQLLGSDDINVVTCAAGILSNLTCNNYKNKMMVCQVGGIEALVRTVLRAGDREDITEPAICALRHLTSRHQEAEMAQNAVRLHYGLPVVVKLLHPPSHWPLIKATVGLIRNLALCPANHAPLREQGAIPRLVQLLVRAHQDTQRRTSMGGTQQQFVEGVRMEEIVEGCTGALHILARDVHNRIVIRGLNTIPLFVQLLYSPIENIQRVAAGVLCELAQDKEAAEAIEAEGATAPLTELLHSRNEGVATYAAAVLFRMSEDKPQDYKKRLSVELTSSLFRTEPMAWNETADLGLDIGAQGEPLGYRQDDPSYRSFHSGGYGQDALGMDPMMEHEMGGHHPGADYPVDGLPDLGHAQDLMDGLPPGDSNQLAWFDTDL
Procedure: The plate was incubated protected from light for 60 minutes at 20° C. prior to read. Reads were performed on a CLARIOstar plate reader (BMG Labtech) in duplicate, and data were fitted to a 1:1 binding model with hill slope using an in-house script. All provided concentrations are final concentrations.

B1: I-1811 (peptide)
peptide: Ac-[αAllylPro]DL[B5(19)]DDAAFL[PyrS2]FWQ-NH2
modifications: staple 1-4, 4-11
notes: Stapled peptide; also called Ac-PL3-Asp-Leu-B5-Asp-Asp-Ala-Ala-Phe-Leu-PyrS2-Phe-Trp-Gln-NH2
[1]
  NanoBRET Abs IC50: 32.3 µM
[2]
  IC50: 0.156 µM
